Data reported in patent US20030166587A1 (SIGNAL PHARMACEUTICALS, published 2003).
Non-standard residues stand in square brackets, D forms with d. No end group written: not given here. pS = N[C@@H](COP(=O)(O)O)C(=O)O

target: specific IκB E3 ubiquitin ligase activity of HeLa extract; experiment: cell-based or functional assay

| Binder | IC50 of inhibition of pIκBα ubiquitination (in vitro ubiquitination assay in HeLa extract) [µM] |
| --- | --- |
| CKKERLLDDRHDSGLD[pS]MKDEE [ppS36, singly phosphorylated IκBα peptide] | 400 |
| CDDRHD[pS]GLD[pS]MKDEE [pp15, doubly phosphorylated IκBα peptide] | 5 |
| CKKERLLDDRHD[pS]GLDSMKDEE [ppS32, singly phosphorylated IκBα peptide] | 400 |

Results, then the binder that gave them:

| IC50 of inhibition of pIκBα ubiquitination (in vitro ubiquitination assay in HeLa extract) [µM] | Binder |
| --- | --- |
| 10 | CD[pS]GLD[pS]M [pp7, doubly phosphorylated IκBα peptide (minimal size peptide tested)] |
| 5 | CDDRHD[pS]GLD[pS]M [pp11, doubly phosphorylated IκBα peptide] |
